Assay results: paper PMC12326332

Experiments:
Test in all cases: SPR; Biacore T200, CM-5 chip with coupled anti-GST nanobody; GST-tagged RNF38 LP variants captured, UBE2D2^S22R or UBE2D2^S22R,C85K–Ub as analyte; 25°C; 25 mM Tris–HCl pH 7.6, 150 mM NaCl, 1 mM DTT, 0.005% Tween-20; one-site binding model; two technical replicates
[1] = molecular target: GST-RNF38^RING-R454S (UniProt Q9H0F5)
[2] = molecular target: GST-RNF38^RING-R454T (UniProt Q9H0F5)
[3] = molecular target: GST-RNF38^RING-R454H (UniProt Q9H0F5)
[4] = molecular target: GST-RNF38^RING-R454G (UniProt Q9H0F5)
[5] = molecular target: GST-RNF38^RING-R454C (UniProt Q9H0F5)
[6] = molecular target: GST-RNF38^RING-R454I (UniProt Q9H0F5)
[7] = molecular target: GST-RNF38^RING-R454P (UniProt Q9H0F5)
[8] = molecular target: GST-RNF38^RING-R454Q (UniProt Q9H0F5)
[9] = molecular target: GST-RNF38^RING-R454A (UniProt Q9H0F5)
[10] = molecular target: GST-RNF38^RING-R454L (UniProt Q9H0F5)
[11] = molecular target: GST-RNF38^RING-R454Y (UniProt Q9H0F5)
[12] = molecular target: GST-RNF38^RING-R454M (UniProt Q9H0F5)
[13] = molecular target: GST-RNF38^RING-R454E (UniProt Q9H0F5)
[14] = molecular target: GST-RNF38^RING-R454K (UniProt Q9H0F5)
[15] = molecular target: GST-RNF38^RING-R454N (UniProt Q9H0F5)
[16] = molecular target: GST-RNF38^RING-R454D (UniProt Q9H0F5)
[17] = molecular target: GST-RNF38^RING-WT (UniProt Q9H0F5)
[18] = molecular target: GST-RNF38^RING-R454F (UniProt Q9H0F5)
[19] = molecular target: GST-RNF38^RING-R454W (UniProt Q9H0F5)
[20] = molecular target: GST-RNF38^RING-R454V (UniProt Q9H0F5)

Row | Kd [1] | Kd [2] | Kd [3] | Kd [4] | Kd [5] | Kd [6] | Kd [7] | Kd [8] | Kd [9] | Kd [10] | Kd [11] | Kd [12] | Kd [13] | Kd [14] | Kd [15] | Kd [16] | Kd [17] | Kd [18] | Kd [19] | Kd [20] | Substance
1 | 153 µM | 160 µM | 200 µM | 393 µM | 209 µM | 111 µM | 245 µM | 101 µM | 167 µM | 166 µM | 138 µM | 139 µM | 755 µM | 132 µM | 623 µM | 270 µM | 105 µM | 173 µM | 63.1 µM | 173 µM | UBE2D2^S22R (from UniProt P62837 1-147) (enzyme)
2 | 59.5 µM | 63 µM | 55.7 µM | 91 µM | 56.5 µM | 42 µM | 82.7 µM | 29.2 µM | 60.4 µM | 46.7 µM | 23.8 µM | 31.2 µM | 111 µM | 30.2 µM | 106 µM | 69.8 µM | 2.5 µM | 45.4 µM | 24.3 µM | 53.9 µM | UBE2D2^S22R,C85K–Ub (from UniProt P62837 2-147; P0CG48 1-76) (complex)
